Key:
NCCP(=O)(O)O = experiment: purified protein; details: saturating CTP (4 mM), 7 mM MgCl2, room temperature
[1] = tested on: C[N+](C)(C)CCOP(=O)([O-])O; experiment: purified protein; details: saturating CTP (4 mM), 7 mM MgCl2, room temperature; fit with substrate inhibition

| Substance | Km (NCCP(=O)(O)O) [µM] | Km [1] [µM] | kcat [1] [s⁻¹] | kcat/Km [1] [M⁻¹ s⁻¹] | kcat (NCCP(=O)(O)O) [s⁻¹] |
| --- | --- | --- | --- | --- | --- |
| Ari-PntC (Ari1348) (Lancefieldella rimae ATCC 49626) | 12 ± 1 | 1000 ± 800 | 0.7 ± 0.3 | 720 | – |
| Spn-LicC (Streptococcus pneumoniae R6) | 318 ± 129 | 2.36 ± 0.65 | 1.06 ± 0.04 | – | 0.723 ± 0.054 |

Source: PMC6697681, “The predominance of nucleotidyl activation in bacterial phosphonate biosynthesis” (Nature Communications, 2019)
